Assays:
[1] = target: T1, human PD-L1 expressed on mammalian cells (human, UniProt Q9NZQ7 19-290); assay: FACS-based receptor blocking on PDL1-CHOK1 cells; blocked ligand biotin-labeled huPD-1; unit from the x axis Log [Con. M]; the text prints the rounded 2.56 nM
T1 construct: whole, on cells; also called PDL1-CHOK1 cells; PDL1-Raji cells
Procedure: (§1) To evaluate the blocking effect of HL1210-3 mouse mAb on human PD-L1 expressed on mammalian cells to bind to its receptor PD-1, the FACS-based receptor blocking assay was used. Briefly, PDL1-CHOK1 cells were firstly incubated with 3-fold serious diluted HL1210-3 mouse mAb starting at 20 μg/ml at RT for 1 hour. After wash by FACS buffer (PBS with 2% FBS), the biotin-labeled huPD-1 was added to each well and incubated at RT for 1 hour. Then, the Streptavidin-PE was added to each well for 0.5 hour post twice wash with FACS buffer. The mean florescence intensity (MFI) of PE was evaluated by FACSAriaIII.

human PD-L1-Fc protein [2] = target: T2, human PD-L1-Fc protein (human, UniProt Q9NZQ7 19-239); assay: ELISA receptor blocking, coated PD-L1-Fc, competitor biotin PD-1-Fc
T2 construct: Coated on ELISA plates; also called huPD-L1; not shown: Fc part
Procedure: To evaluate the blocking effect of HL1210-3 mouse mAb on recombinant human PD-L1 to bind to its receptor PD-1, the ELISA based receptor blocking assay was employed. Briefly, microtiter plates were coated with human PD-L1-Fc protein at 1 μg/ml in PBS, 100 μl/well at 4° C. overnight, then blocked with 100 μl/well of 5% BSA. 50 μl biotin-labeled human PD-1-Fc protein and 3-fold dilutions of HL1210-3 antibodies starting from 2 μg/ml at 50 μl were added to each well and incubated for 1 hour at 37° C. The plates were washed with PBS/Tween and then incubated with Streptavidin-HRP for 1 hour at 37° C. After washing, the plates were developed with TMB substrate and analyzed by spectrophotometer at OD 450-630 nm.

human PD-L1-Fc protein [3] = target: T2, human PD-L1-Fc protein; assay: ELISA on coated PD-L1-Fc
[4] = target: T1, human PD-L1 expressed on mammalian cells; assay: FACS receptor blocking on PDL1-CHOK1 cells, competitor biotin huPD-1
Procedure: as §1

[5] = target: T3, human PD-L1-his taq protein (human, UniProt Q9NZQ7 19-239, limits assumed); assay: SPR Biacore T200, antibody captured by anti-mouse Fc, PD-L1-his injected
T3 construct: also called recombinant PD-L1 protein; recombinant human PD-L1; not shown: his tag
Procedure: The binding of the HL1210-3 antibodies to recombinant PD-L1 protein (human PD-L1-his taq) was tested with BIACORE™ using a capture method. The HL1210-3 mouse mAb was captured using anti-mouse Fc antibody coated on a CM5 chip. A series dilution of human PD-L1-his taq protein was injected over captured antibody for 3 mins at a flow rate of […]. The antigen was allowed to dissociate for 900 s. All the experiment were carded out on a Biacore T200. Data analysis was carried out using Biacore T200 evaluation software.

T3 sequence (Q9NZQ7 19-239 limits assumed): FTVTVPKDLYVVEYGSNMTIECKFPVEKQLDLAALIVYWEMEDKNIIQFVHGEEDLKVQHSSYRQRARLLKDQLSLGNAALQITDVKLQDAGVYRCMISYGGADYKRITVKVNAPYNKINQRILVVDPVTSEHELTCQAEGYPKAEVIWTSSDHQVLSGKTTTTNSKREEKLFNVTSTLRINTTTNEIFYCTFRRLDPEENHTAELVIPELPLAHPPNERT
T2 sequence (Q9NZQ7 19-239 limits assumed): as above
T1 sequence (Q9NZQ7 19-290): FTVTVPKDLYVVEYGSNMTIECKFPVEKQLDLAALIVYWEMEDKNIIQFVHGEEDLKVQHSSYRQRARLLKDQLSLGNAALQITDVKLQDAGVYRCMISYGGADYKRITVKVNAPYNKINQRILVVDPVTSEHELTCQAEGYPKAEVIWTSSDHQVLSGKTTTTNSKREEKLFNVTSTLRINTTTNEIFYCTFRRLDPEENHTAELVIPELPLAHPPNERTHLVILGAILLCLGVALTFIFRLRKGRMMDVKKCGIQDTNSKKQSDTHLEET

- IC50 [1]: 2.56 nM
- IC50 (human PD-L1-Fc protein [2]): 0.783 nM
- EC50 (human PD-L1-Fc protein [3]): 5.54 ng/mL
- IC50 [4]: 2.56 nM
- Kd [5]: 0.293 nM
- koff [5]: 4.69e-05 s⁻¹
- kon [5]: 161000 M⁻¹ s⁻¹
B1: HL1210-3 mouse mAb (antibody, V domains shown)
VH: EVKLVESGGDLVKPGGSLKLSCAASGFTFSSYDMSWVRQTPEKSLEWVATISDGGGYIYYSDSVKGRFTISRDNAKNNLYLQMSSLRSEDTALYICAREFGKRYALDYWGQGTSVT
VL: DIVMTQSHKFMSTSVGDRVSISCKASQDVTPAVAWYQQKPGQSPKLLIYSTSSRYTGVPDRFTGSGSGTDFTFTISSVQAEDLAVYYCQQHYTTPLTFGAGTKLELK
notes: Mouse monoclonal antibody purified from hybridoma; also called hybridoma clone HL1210-3
